Paper PMC7053344, “Crystal Structures of Human C4.4A Reveal the Unique Association of Ly6/uPAR/α-neurotoxin Domain” (International Journal of Biological Sciences, 2020)

Columns and labels:
[1] = target: T1, C4.4A^1-278 fused to a C-terminal uPAR DIII purification tag (Homo sapiens, UniProt O95274); experiment: far-Western, overlay or dot blot; immunoblot: purified C4.4A domain constructs, unreduced (lanes 1-6), separated by SDS-PAGE and immobilized on a PVDF membrane; 1 µg/mL mAb 11H10 as primary antibody, peroxidase-conjugated anti-mouse immunoglobulins, ECL; details: both partners purified
T1 construct: C4.4A (LYPD3), human, DI, DII and STP-rich region, residues 1-278; also called C4.4A-ent-uPAR-DIII; not shown: uPAR DIII, C-terminal, kept
T1 sequence (O95274 whole entry, looked up, the tested form may be a part): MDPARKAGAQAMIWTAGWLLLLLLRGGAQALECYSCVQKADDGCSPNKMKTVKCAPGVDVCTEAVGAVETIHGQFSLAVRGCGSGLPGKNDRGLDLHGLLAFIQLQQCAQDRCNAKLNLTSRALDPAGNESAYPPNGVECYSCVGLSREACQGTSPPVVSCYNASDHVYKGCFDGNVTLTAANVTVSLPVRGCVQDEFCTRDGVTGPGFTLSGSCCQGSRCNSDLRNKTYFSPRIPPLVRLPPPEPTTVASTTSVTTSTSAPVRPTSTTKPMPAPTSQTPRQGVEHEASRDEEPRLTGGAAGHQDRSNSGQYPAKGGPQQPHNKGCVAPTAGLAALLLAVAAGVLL

[2] = target: T2, C4.4A-DIDII^1-199 fused to a C-terminal uPAR DIII purification tag (Homo sapiens, UniProt O95274); experiment: as above; details: both partners purified
T2 construct: C4.4A (LYPD3), human, both LU-domains DI and DII, residues 1-199; also called C4.4A-DIDII (blot construct); not shown: uPAR DIII, C-terminal, kept
T2 sequence (O95274 whole entry, looked up, the tested form may be a part): as above

B1: mouse monoclonal anti-human C4.4A antibody 11H10 (antibody, V domains shown)
VH: QVTLKESGPGILQPSQTLSLTCSFSGFSLNSFGTGVGWIRQPSGKGLEWLAHIWWNDYKYYNAALESRLTISKDTSNNQVFLKIASVDTADTATYYCARLRLRYFDYWGQGTTLTVSS
VL: DILMTQSPAILSVSPGEGVSFSCWANQNIGTSIHWYQQRTNGSPRLLIKYASESISGIPSRFSGSGSGTDFTLSINSVESEDIADYYCQQSNSWPIFTFGSGTKLEIK
notes: 11H10 light chain (kappa), printed as the Fab light chain; 11H10 heavy chain VH, CH1 and start of the hinge, printed as the Fab heavy chain; mouse IgG1 heavy chain constant region, the rest of the hinge, CH2 and CH3 that follow the printed Fd (ends VPRDC); IgG1 kappa; also called mAb 11H10; source: mouse hybridoma (FVB mice immunized with recombinant human C4.4A), purified
Q: Does B1 bind [1]?
A: binds

Q: Does B1 bind [2]?
A: binds
